Experiment [1] has as its target T1, 27mer cyno CD3 polypeptide conjugated to biotin (cynomolgus monkey).
T1 sequence (peptide, conjugated to biotin (site not stated)): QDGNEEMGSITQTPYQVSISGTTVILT
As to the kind of experiment: BIAcore T200 SPR; biotin 27mer CD3 peptide on SA chip; TDB flowed; 37 C. (In general: Surface plasmon resonance follows binding to a sensor surface in real time, without labels.)

Experiment [2] shares this target. The experiment is described as above. The source holds these as a separate data set.
Experiment [3] addresses cynomolgus LY6G6D-Fc (cynomolgus monkey). As to the kind of experiment: BIAcore SPR; LY6G6D-Fc on chip; TDB flowed; 37 C.
The target is the same in experiment [4]. As to the kind of experiment: BIAcore SPR; LY6G6D-Fc on chip; TDB flowed; 37 C. This is another data set of the same source.
Experiment [5] deals with T2, human LY6G6D-Fc (human) (UniProt O95868).
T2 sequence: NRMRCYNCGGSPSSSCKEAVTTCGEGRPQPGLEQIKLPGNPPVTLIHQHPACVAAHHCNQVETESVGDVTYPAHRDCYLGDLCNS
As to the kind of experiment: BIAcore SPR; LY6G6D-Fc on chip; TDB flowed; 37 C.

The target in experiment [6] is T2, human LY6G6D-Fc (human). As to the kind of experiment: BIAcore SPR; LY6G6D-Fc on chip; TDB flowed; 37 C. The source holds these as a separate data set.
Experiment [7] concerns the target cynomolgus LY6G6D-Fc (cynomolgus monkey). In words: BIAcore SPR; two-cell TDB.

Here are results for 6 molecules from patent publication US20210179715A1.

Several values for one entry are separate records, joined by “and”; a condition that tells them apart may be missing. Equal entries are not always repeated. Where two headings read alike, the source gives them in different places.

B1: LY6G6D TDB assembled using a one-cell system comprising the anti-LY6G6D 20A12.QNTv12 arm (one-cell) and the anti-CD3 38E4v1 (WT) arm (bispecific antibody, V domains shown)
VH 1: EVQLLESGGGLVQPGGSLRLSCAASGFDFVNNAMIWVREAPGKGLEWVSALSFADNTAYYATWASGRFTISRDSSKTTVYLQMNSLRAEDTAVYYCMRGDLWGPGTLVTVSS
VL 1: DIQMTQSPSTLSASVGDRVTITCQASESITRYLNWYQKKPGKAPKLLIYDASKLPSGVPSRFSGSGSGTEFTLTISSLQPDDFATYYCQSTSFRGRSYQNTFGGGTKVEIK
VH 2: EVQLVQSGAEVKKPGASVKVSCKASGFTFTSYYIHWVRKAPGQGLEWIGWIYPENDNTKYNEKFKDRVTITADTSTSTAYLELSSLRSEDTAVYYCARDGYSRYYFDYWGQGTLVTVSS
VL 2: DIVMTQSPDSLAVSLGERATINCKSSQSLLNSRTRKNYLAWYQEKPGQSPKLLIYWTSTRKSGVPDRFSGSGSGTDFTLTISSLQAEDVAVYYCKQSFILRTFGQGTKVEIK
The Kd is a measure of binding affinity in units of concentration. Higher therefore signals weaker binding. One may read the koff as the rate constant with which the complex falls apart. Read a low koff as slow dissociation. A word on the kon: it is the rate constant with which the complex forms. A low value points to slower complex formation. As for B1, in experiment [1], the Kd is 15.4 nM and 16.5 nM; the off-rate constant (koff) was 0.0399 s⁻¹ and 0.0437 s⁻¹; the association rate constant (kon) is 2.6e+06 M⁻¹ s⁻¹ and 2.65e+06 M⁻¹ s⁻¹. Also, in experiment [2], the Kd is 15.9 nM.

B2: LY6G6D TDB assembled using a one-cell system comprising the anti-LY6G6D 20A12.QNTv12 arm (one-cell) and the anti-CD3 38E4v1 MD4 arm (bispecific antibody, V domains shown)
VH 1: EVQLLESGGGLVQPGGSLRLSCAASGFDFVNNAMIWVREAPGKGLEWVSALSFADNTAYYATWASGRFTISRDSSKTTVYLQMNSLRAEDTAVYYCMRGDLWGPGTLVTVSS
VL 1: DIQMTQSPSTLSASVGDRVTITCQASESITRYLNWYQKKPGKAPKLLIYDASKLPSGVPSRFSGSGSGTEFTLTISSLQPDDFATYYCQSTSFRGRSYQNTFGGGTKVEIK
VH 2: EVQLVQSGAEVKKPGASVKVSCKASGFTFTSYYIHWVRKAPGQGLEWIGWIYPENDNTKYNEKFKDRVTITADTSTSTAYLELSSLRSEDTAVYYCARDGYSRYYFDYWGQGTLVTVSS
VL 2: DIVMTQSPDSLAVSLGERATINCKSSQSLLNSRTRKNYLAWYQEKPGQPPKLLIYWASTRKSGVPDRFSGSGSGTDFTLTISSLQAEDVAVYYCKQSFILRTFGQGTKVEIK
For B2, in experiment [1], the Kd was 14 nM and 14.7 nM; the koff was 0.0433 s⁻¹ and 0.0426 s⁻¹; the kon was 3.09e+06 M⁻¹ s⁻¹ and 2.89e+06 M⁻¹ s⁻¹. Besides, in experiment [3], the dissociation constant Kd amounted to 2.62 nM, the off-rate constant (koff) is 0.000574 s⁻¹ and the kon was found to be 219000 M⁻¹ s⁻¹. Moreover, the Kd in experiment [2] turned out to be 14.4 nM.

B3: LY6G6D TDB comprising the anti-LY6G6D 1G4 arm and the anti-CD3 38E4.v1 arm (bispecific antibody, V domains shown)
VH 1: EVQLVQSGAEVKKPGASVKVSCKASGYTFTTYVMHWVRQAPGQGLEWMGYINPYNDGTKYNEKFKGRVTMTRDTSISTAYMELSRLRSDDTAVYYCGRRNFDYWGQGTLVTVSS
VL 1: DIVMTQSPDSLAVSLGERATINCKSSQSLLLSGNQENYLAWHQQKPGQPPKTLITWASTRISGVPDRFSGSGSGTDFTLTISSLQAEDVAVYYCQQSYSAPYTFGGGTKVEIK
VH 2: EVQLVQSGAEVKKPGASVKVSCKASGFTFTSYYIHWVRQAPGQGLEWIGWIYPENDNTKYNEKFKDRVTITADTSTSTAYLELSSLRSEDTAVYYCARDGYSRYYFDYWGQGTLVTVSS
VL 2: DIVMTQSPDSLAVSLGERATINCKSSQSLLNSRTRKNYLAWYQQKPGQSPKLLIYWTSTRKSGVPDRFSGSGSGTDFTLTISSLQAEDVAVYYCKQSFILRTFGQGTKVEIK
On to B3, for which, in experiment [4], the Kd was determined as 13.1 nM, the off-rate (koff) amounted to 0.00936 s⁻¹ and the association rate constant (kon) was 714000 M⁻¹ s⁻¹.

B4: LY6G6D TDB comprising the anti-LY6G6D 20A12.QNTv12 arm (two-cell) and the anti-CD3 40G5c arm (bispecific antibody, part only; not given: anti-CD3 arm and constant regions, V domains shown, part only)
VH: EVQLLESGGGLVQPGGSLRLSCAASGFDFVNNAMIWVRQAPGKGLEWVSALSFADNTAYYATWASGRFTISRDSSKTTVYLQMNSLRAEDTAVYYCMRGDLWGPGTLVTVSS
VL: DIQMTQSPSTLSASVGDRVTITCQASESITRYLNWYQQKPGKAPKLLIYDASKLPSGVPSRFSGSGSGTEFTLTISSLQPDDFATYYCQSTSFRGRSYQNTFGGGTKVEIK
B4: in experiment [5], the dissociation constant (Kd) turned out to be 5.62 nM, the dissociation rate constant (koff) was found to be 0.000453 s⁻¹ and the association rate constant (kon) is 80600 M⁻¹ s⁻¹. In experiment [4], this molecule had a Kd of 4.91 nM, a koff of 0.000413 s⁻¹ and an on-rate constant (kon) of 84300 M⁻¹ s⁻¹. The molecule also had a koff in experiment [6] of 0.000456 s⁻¹.

B5: LY6G6D TDB comprising the anti-LY6G6D 20A12.QNTv12 arm (two-cell) and the anti-CD3 38E4v1 arm (bispecific antibody, V domains shown)
VH 1: EVQLLESGGGLVQPGGSLRLSCAASGFDFVNNAMIWVRQAPGKGLEWVSALSFADNTAYYATWASGRFTISRDSSKTTVYLQMNSLRAEDTAVYYCMRGDLWGPGTLVTVSS
VL 1: DIQMTQSPSTLSASVGDRVTITCQASESITRYLNWYQQKPGKAPKLLIYDASKLPSGVPSRFSGSGSGTEFTLTISSLQPDDFATYYCQSTSFRGRSYQNTFGGGTKVEIK
VH 2: EVQLVQSGAEVKKPGASVKVSCKASGFTFTSYYIHWVRQAPGQGLEWIGWIYPENDNTKYNEKFKDRVTITADTSTSTAYLELSSLRSEDTAVYYCARDGYSRYYFDYWGQGTLVTVSS
VL 2: DIVMTQSPDSLAVSLGERATINCKSSQSLLNSRTRKNYLAWYQQKPGQSPKLLIYWTSTRKSGVPDRFSGSGSGTDFTLTISSLQAEDVAVYYCKQSFILRTFGQGTKVEIK
On to B5, for which the Kd in experiment [1] is 13 nM and 16.5 nM; in experiment [3], 1.92 nM; in experiment [4], 2.29 nM; in experiment [2], 14.8 nM; in experiment [7] it was 2.29 nM. The koff was 0.0337 s⁻¹ and 0.0364 s⁻¹ in experiment [1]; 0.000444 s⁻¹ in experiment [3]; 0.00038 s⁻¹ in experiment [4]. Also, the association rate constant (kon) in experiment [1] was 2.6e+06 M⁻¹ s⁻¹ and 2.21e+06 M⁻¹ s⁻¹; in experiment [3] it was 231000 M⁻¹ s⁻¹; in experiment [4], 166000 M⁻¹ s⁻¹.

B6: LY6G6D TDB assembled using a one-cell system comprising the anti-LY6G6D 20A12.QNTv12 arm (one-cell) and the anti-CD3 38E4v1 MD1 arm (bispecific antibody, V domains shown)
VH 1: EVQLLESGGGLVQPGGSLRLSCAASGFDFVNNAMIWVREAPGKGLEWVSALSFADNTAYYATWASGRFTISRDSSKTTVYLQMNSLRAEDTAVYYCMRGDLWGPGTLVTVSS
VL 1: DIQMTQSPSTLSASVGDRVTITCQASESITRYLNWYQKKPGKAPKLLIYDASKLPSGVPSRFSGSGSGTEFTLTISSLQPDDFATYYCQSTSFRGRSYQNTFGGGTKVEIK
VH 2: EVQLVQSGAEVKKPGASVKVSCKASGFTFTSYYIHWVRKAPGQGLEWIGWIYPENDNTKYNEKFKDRVTITADTSTSTAYLELSSLRSEDTAVYYCARDGYSRYYFDYWGQGTLVTVSS
VL 2: DIVMTQSPDSLAVSLGERATINCKSSQSLLNSRTRKNYLAWYQEKPGQPPKLLIYWASTRESGVPDRFSGSGSGTDFTLTISSLQAEDVAVYYCTQSFILRTFGQGTKVEIK
Consider B6, for which, in experiment [1], the Kd is 26.6 nM and 25.6 nM; the koff is 0.0383 s⁻¹ and 0.0376 s⁻¹; the kon is 1.44e+06 M⁻¹ s⁻¹ and 1.47e+06 M⁻¹ s⁻¹. Moreover, in experiment [3], the Kd came out at 3.63 nM, the koff was found to be 0.000512 s⁻¹ and the on-rate constant (kon) was found to be 141000 M⁻¹ s⁻¹. In addition, the Kd in experiment [2] was determined as 26.1 nM.
